This is an account of results in patent US20230357735, “PROGRAMMABLE NUCLEASES AND METHODS OF USE” (Mammoth Biosciences, Inc., published 2023).

B1: PDCD1 gRNA R2925 ; PDCD1 target (ssRNA ; dsDNA)
RNA: CUUUCAAGACUAAUAGAUUGCUCCUUACGAGGAGACUAGCACCGCCCAGACGACUG
DNA 1: TAGCACCGCCCAGACGACTG
DNA 2: CAGTCGTCTGGGCGGTGCTA
B2: B2M gRNA R3132 ; B2M target (ssRNA ; dsDNA)
RNA: CUUUCAAGACUAAUAGAUUGCUCCUUACGAGGAGACAGCAAGGACUGGUCUUUCUA
DNA 1: AGCAAGGACTGGTCTTTCTA
DNA 2: TAGAAAGACCAGTCCTTGCT
B3: TRAC gRNA R3042 ; TRAC target (ssRNA ; dsDNA)
RNA: CUUUCAAGACUAAUAGAUUGCUCCUUACGAGGAGACGAGUCUCUCAGCUGGUACAC
DNA 1: GAGTCTCTCAGCTGGTACAC
DNA 2: GTGTACCAGCTGAGAGACTC

This data set has as its target T1, CasΦ.12 (in cells) (Unknown).
T1 chain: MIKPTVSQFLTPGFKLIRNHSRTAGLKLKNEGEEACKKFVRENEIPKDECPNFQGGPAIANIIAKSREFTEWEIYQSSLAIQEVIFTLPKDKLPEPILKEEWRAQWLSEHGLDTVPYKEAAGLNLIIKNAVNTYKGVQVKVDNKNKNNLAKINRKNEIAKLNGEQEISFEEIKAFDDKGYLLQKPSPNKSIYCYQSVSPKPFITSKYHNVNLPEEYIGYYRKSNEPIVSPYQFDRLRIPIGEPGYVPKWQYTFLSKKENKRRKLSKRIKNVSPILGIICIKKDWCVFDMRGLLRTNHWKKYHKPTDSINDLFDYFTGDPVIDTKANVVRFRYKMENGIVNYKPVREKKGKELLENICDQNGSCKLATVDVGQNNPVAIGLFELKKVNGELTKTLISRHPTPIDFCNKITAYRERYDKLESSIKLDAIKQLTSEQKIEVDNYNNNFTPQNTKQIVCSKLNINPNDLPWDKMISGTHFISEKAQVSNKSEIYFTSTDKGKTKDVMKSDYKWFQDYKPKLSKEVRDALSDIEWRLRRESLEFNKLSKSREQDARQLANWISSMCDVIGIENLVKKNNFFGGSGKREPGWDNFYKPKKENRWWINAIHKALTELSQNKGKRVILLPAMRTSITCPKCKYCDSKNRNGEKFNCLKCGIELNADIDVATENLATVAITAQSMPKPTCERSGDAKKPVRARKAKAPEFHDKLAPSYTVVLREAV
In words: cell_activity; T cells, RNP nucleofection; PAM NTTN. How it is done:
This example illustrates the ability of CasΦ RNP complexes to knockout multiple genes simultaneously. In this study, gRNAs targeting B2M, TRAC and PDCD1 (provided in Table 15) were incubated with CasΦ.12 (SEQ ID NO: 12) for 10 minutes at room temperature to form B2M, TRAC, and PDC1 targeting RNPs, respectively. The B2M targeting RNPs, TRAC targeting RNPs, PDCD1 targeting RNPs and combinations thereof were added to T cells. T cells were resuspended at 5×10⁵ cells/20 μL in Nucleofection P3 solution and an Amaxa 4D 96-well electroporation system with pulse code EH115 was used to nucleofect the cells. Immediately after nucleofection, 85 μl pre-warmed culture medium was added to each well. The cells were then left in the cuvette plate for 10 minutes before transfer to the culture plate. On Day 3, genomic DNA was extracted and sent for NGS sequencing and the % indel was measured with a positive % indel being indicative of % knockout. On Day 5, cells were harvested for flow cytometry and the % knockout was measured with fluorescently labeled antibodies to TRAC and B2M (antibody to PDCD1 unavailable). % indel results are presented in Table 16 and flow cytometry data presented in Table 17.
For the molecule B1, the activity was 44.6 % indel. The result for B2 reads 85.5 % indel; that for B3, 77.6 % indel.
